From patent US20240093191A1, “COMPOSITIONS AND METHODS FOR TREATING DISEASE ASSOCIATED WITH DUX4 OVEREXPRESSION” (RESEARCH INSTITUTE AT NATIONWIDE CHILDREN'S HOSPITAL, priority 2021, published 2024)
Values joined by “and” are separate entries in the source; they are usually repeats but may differ in a detail not shown here. Identical values can stand only once.

B1: mi1311F: miDUX4 cloned with mi405F flanking sequences (nucleic acid)
DNA: GCTCGAGTGAGCGAGCGGAGAACTGCCATTCTTTCCTGTAAAGCCACAGATGGGGAAAGAATGGCAGTTCTCCGCGTGCCTACTAGTAATTCTTCGATTCTGC
modifications: expressed or natural sequence
B2: U6-mir-675-2.6: mir-675 construct with modified 5' and 3' flanking sequences (nucleic acid)
DNA: TCTAGAGATCCGACGCCGCCATCTCTAGGCCCGCGCCGGCCCCCTCGCACAGACTTGTGGGAGAAGCTCGGCTACTCCCCTGCCCCGGTTAATTTGCATATAATATTTCCTAGTAACTATAGAGGCTTAATGTGCGATAAAAGACAGATAATCTGTTCTTTTTAATACTAGCTACATTTTACATGATAGGCTTGGATTTCTATAAGAGATACAAATACTAAATTATTATTTTAAAAAACAGCACAAAAGGAAACTCACCCTAACTGTAAAGTAATTGTGTGTTTTGAGACTATAAATATCCCTTGGAGAAAAGCCTTGTTAACGCGCCCCAGGGTCTGGTGCGGAGAGGGCCCACAGTGGACTTGGTGACGCTGTATGCCCTCACCGCTCAGCCCCTGGGGTAACTCCTAATCACACTTTTTT
B3: U6.mi405NF: mi405 with one G at 5' end and no 3' flanking sequence (nucleic acid)
DNA: ACGCCGCCATCTCTAGGCCCGCGCCGGCCCCCTCGCACAGACTTGTGGGAGAAGCTCGGCTACTCCCCTGCCCCGGTTAATTTGCATATAATATTTCCTAGTAACTATAGAGGCTTAATGTGCGATAAAAGACAGATAATCTGTTCTTTTTAATACTAGCTACATTTTACATGATAGGCTTGGATTTCTATAAGAGATACAAATACTAAATTATTATTTTAAAAAACAGCACAAAAGGAAACTCACCCTAACTGTAAAGTAATTGTGTGTTTTGAGACTATAAATATCCCTTGGAGAAAAGCCTTGTTTGCTCGAGTGAGCGATCCAGGATTCAGATCTGGTTTCTGTAAAGCCACAGATGGGAAACCAGATCTGAATCCTGGACTGCCTACTAGATTTTTT
B4: mi318F: miDUX4 cloned with mi405F flanking sequences (nucleic acid)
DNA: GCTCGAGTGAGCGAGCCCTGCTCCTCCGAGCCTTTCTGAAAGCCACAGATGGGAAAGGCTCGGAGGAGCAGGGCGTGCCACTAGTAATTCTTCGATTCTGC
modifications: expressed or natural sequence
B5: U6-milacZ: negative control miRNA expression plasmid (nucleic acid)
DNA: ACGCCGCCATCTCTAGGCCCGCGCCGGCCCCCTCGCACAGACTTGTGGGAGAAGCTCGGCTACTCCCCTGCCCCGGTTAATTTGCATATAATATTTCCTAGTAACTATAGAGGCTTAATGTGCGATAAAAGACAGATAATCTGTTCTTTTTAATACTAGCTACATTTTACATGATAGGCTTGGATTTCTATAAGAGATACAAATACTAAATTATTATTTTAAAAAACAGCACAAAAGGAAACTCACCCTAACTGTAAAGTAATTGTGTGTTTTGAGACTATAAATATCCCTTGGAGAAAAGCCTTGTTTGCGTTTAGTGAACCGTCAGATGGTACCGTTTAAACTCGAGTGAGCGACATGTTGCCACTCGCTTTAATCTGTAAAGCCACAGATGGGATTAAAGCGAGTGGCAACATGGCGCCTACTAGAGCGGCCGCCACAGCGGGGAGATCCAGACATGATAAGATACATTTTTT
B6: U6.mir-675-2.2: mir-675 construct with flanks as U6.mir-675-2.1, different promoter (nucleic acid)
DNA: GAACGCTGACGTCATCAACCCGCTCCAAGGAATCGCGGGCCCAGTGTCACTAGGCGGGAACACCCAGCGCGCGTGCGCCCTGGCAGGAAGATGGCTGTGAGGGACAGGGGAGTGGCGCCCTGCAATATTTGCATGTCGCTATGTGTTCTGGGAAATCACCATAAACGTGAAATGTCTTTGGATTTGGGAATCTTATAAGTTCTGTATGAGACCACTTGGATCCCCCAGGGTCTGGTGCGGAGAGGGCCCACAGTGGACTTGGTGACGCTGTATGCCCTCACCGCTCAGCCCCTGGGGTAACTCCTAATCACACTTTTTT
B7: mi185F: miDUX4 cloned with mi405F flanking sequences (nucleic acid)
DNA: GCTCGAGTGAGCGAGGTCCAGATTTGGTTTCAGAACTGTAAAGCCACAGATGGGTTCTGAAACCAAATCTGGACCCTGCCTACTAGTAATTCTTCGATTCTGC
modifications: expressed or natural sequence
B8: mi1156F: miDUX4 cloned with mi405F flanking sequences (nucleic acid)
DNA: GCTCGAGTGAGCGAAGGCGCAACCTCTCCTAGAAACTGAAAGCCACAGATGGGTTTCTAGGAGAGGTTGCGCCTGTGCCTACTAGTAATTCTTCGATTCTGC
modifications: expressed or natural sequence
B9: U6-mir-675-2.4: mir-675 construct with flanks as U6.mir-675-2.3, different promoter (nucleic acid)
DNA: GAACGCTGACGTCATCAACCCGCTCCAAGGAATCGCGGGCCCAGTGTCACTAGGCGGGAACACCCAGCGCGCGTGCGCCCTGGCAGGAAGATGGCTGTGAGGGACAGGGGAGTGGCGCCCTGCAATATTTGCATGTCGCTATGTGTTCTGGGAAATCACCATAAACGTGAAATGTCTTTGGATTTGGGAATCTTATAAGTTCTGTATGAGACCACTTGGATCCAATCACACTGCCCCAGGGTCTGGTGCGGAGAGGGCCCACAGTGGACTTGGTGACGCTGTATGCCCTCACCGCTCAGCCCCTGGGGATACTCCTAATCACACTTTTTT
B10: mi186F: miDUX4 cloned with mi405F flanking sequences (nucleic acid)
DNA: GCTCGAGTGAGCGAGTCCAGATTTGGTTTCAGAATCTGTAAAGCCACAGATGGGATTCTGAAACCAAATCTGGACCTGCCTACTAGTAATTCTTCGATTCTGC
modifications: expressed or natural sequence
B11: mi599F: miDUX4 cloned with mi405F flanking sequences (nucleic acid)
DNA: GCTCGAGTGAGCAGAGGCTCTCCCACAGGGGGCTTTCTGAAAGCCACAGATGGGAAAGCCCCCTGTGGGAGAGCCCTGCCTACTAGTAATTCTTCGATTCTGC
modifications: expressed or natural sequence

Assays:
Format in all cases: cell-based, human
[1] = test system: DUX4 ORF (RenLuc-DUX4 ORF); test: Dual-luciferase assay, RenLuc-DUX4 ORF reporter co-transfected with miDUX4 plasmids in HEK293 cells; parameters: increase in relative Renilla luciferase activity compared to original miDUX4 counterpart: concentration or dose not given beside the values; settings: for increase in relative Renilla luciferase activity compared to original miDUX4 counterpart: miDUX4 with mi405F flanking sequences
Experimental: Dual Luciferase Assay. (See also FIGS. 1A, 3A-B, 4A-B, 5B, and 16B-C.) This assay was performed as previously described by Wallace et al. (Mol. Ther. Methods Clin. Dev. 8: 121-30 (2018)) and following the dual-luciferase reporter assay system (Promega) protocol with some modifications. All plasmid constructs had the psiCheck2 dual luciferase reporter plasmid (Promega) as backbone that contains separate Renilla and Firefly luciferase genes, where the former contains the various target sequences used in the experiments of the disclosure, and the latter serves as a transfection normalizer (control). All DUX4 and control sequences were cloned downstream of the Renilla luciferase stop codon, serving as a 3′UTR. HEK293 cells were pre-plated 24h before transfection. Cells were then co-transfected with the luciferase DUX4 reporter and individual microRNA expression plasmids in an increasing luciferase DUX4 reporter:miRNA molar ratio using Lipofectamine 2000 (Invitrogen). Luciferase activity was measured 24h or 48h after transfection. DUX4 gene silencing was determined as previously described [Wallace et al., Mol. Ther. Methods Clin. Dev. 8: 121-30 (2018)]. Triplicate data were averaged per experiment, and individual experiments were performed 3 times. Results were reported as the average ratio of Renilla to Firefly luciferase activity±SEM for all combined experiments.
Accordingly, two new mi405 constructs, i.e., mi405F and mi405NF, were designed. […] To assess the inhibition efficiency of the three mi405 constructs, a dual-luciferase assay and western blot analysis, similar to what was described for mir-675, were carried out. In the dual-luciferase assay, U6.mi405, U6.mi405F, or U6.mi405NF was co-transfected into HEK293 cells along with the RenLuc-DUX4 ORF (a construct expressing the open reading frame of DUX4 as a 3′UTR sequence of Renilla Luciferase). 24 h after transfection, U6.mi405, U6.mi405F, and U6.mi405NF reduced the relative Renilla luciferase activity by 85±1%, 89±1%, and 66±1% (P<0.0001, ANOVA, N=3), respectively, when tested against the RenLuc-DUX4 ORF construct.

DUX4 protein = test: Western blot of V5-tagged DUX4 protein in co-transfected HEK293 cells; settings: HEK293; for Average inhibition efficiency (%) of DUX4 protein levels: CMV.DUX4-FL/CMV.eGFP, molar ratio 1 to 3, eGFP normalizer, relative to U6-milacZ, N = 3-8
Experimental: Western Blots. […] 50 mM Tris (pH 7.5-8.0), 150 mM NaCl, 0.1% (v/v) SDS, 0.5% (v/v) deoxycholate, 1% (v/v) triton X-100 (Fisher Scientific) and 1 tablet of protease inhibitor (ThermoFisher Scientific) per 10 mL of buffer. The total protein extract was quantified using the DC Protein Assay (Bio-Rad). Twenty microgram samples were separated on 12% SDS-PAGE, transferred to nitrocellulose membrane, using the wet transfer system, and incubated with the following antibodies: mouse monoclonal antibody to V5 (horseradish peroxidase [HRP]-coupled) [1:5,000 in 5% milk TBST buffer (150 mM NaCl, 50 mM Tris-HCl pH 7.4 and 0.1% Tween 20 (Fisher Scientific)), R961-25; Invitrogen); rabbit polyclonal eGFP antibody (1:50,000 in 3% BSA PBS, ab290; Abcam); mouse monoclonal β-actin antibodies (1:60,000; Sigma, St Louis, MO); overnight at 4° C. When using the eGFP antibody, membranes were blocked 30 mins with 3% BSA PBS prior to blotting. eGFP-probed blots were washed five times, 5 min each with 0.5% Tween 20 (Fisher Scientific) in TBST buffer, and then incubated with HRP-coupled goat anti-rabbit secondary antibody (1:250,000 in 3% BSA PBS, 115-035-144; Jackson ImmunoResearch) for 2 hours at room temperature. V5-probed blots were washed five times, 5 min each with 0.1% Tween 20 in TBST buffer. Following washes, blots were developed using Immobilon Western HRP substrate (Millipore) and exposed to film. DUX4.V5, and eGFP quantification was assessed using ImageJ.

mir-675-5p = test: Small-transcript northern blot of mir-675 processing in HEK293 cells; settings: HEK293; anti-mir-675-5p biotinylated probe
Text: Small-Transcript Northern Blots. […] (SEQ ID NO: 148)).

| Molecule | increase in relative Renilla luciferase activity compared to original miDUX4 counterpart ([1]; normalized to miGFP) [%] | Average inhibition efficiency (%) of DUX4 protein levels (DUX4 protein) | also measured |
| --- | --- | --- | --- |
| B1 | 27±9 | – | – |
| B2 | – | 63 ± 2 (N = 5) % | – |
| B3 | – | – | reduction of relative Renilla luciferase activity ([1]; 1:4 DUX4:mi405 molar ratio, HEK293, 24 h, normalized to miGFP): 66±1%; reduction of Renilla luciferase activity ([1]; DUX4:mi405 molar ratio 2 to 1, HEK293, 24 h, normalized to U6.miGFP): 4±2% and 3.6±1.8%; relative Renilla luciferase activity reached ([1]; DUX4:miDUX4 molar ratio 1:1): 88±3%; increase in relative Renilla luciferase activity ([1]; switching from molar ratio 1:2 to 1:1 DUX4:miDUX4): 73±7%; reduction of DUX4 protein levels (DUX4 protein; 1:4 DUX4:mi405 molar ratio, 24 h, normalized to miGFP, N=2): 70±13% |
| B4 | 44±15 | – | – |
| B5 | – | 0 ± 2 (N = 8) % | – |
| B6 | – | 58 ± 6 (N = 5) % | mature mir-675-5p bands on northern blot (mir-675-5p): detectable mir-675 mature sequences |
| B7 | 160±8 | – | – |
| B8 | 34±8 | – | – |
| B9 | – | 63 ± 7 (N = 5) % | – |
| B10 | 27±9 | – | – |
| B11 | 24±9 | – | – |
